# B1: human nicotinic acid phosphoribosyltransferase (enzyme, UniProt Q6XQN6 1-538, looked up)
# chain: MAAEQDPEARAAARPLLTDLYQATMALGYWRAGRARDAAEFELFFRRCPFGGAFALAAGLRDCVRFLRAFRLRDADVQFLASVLPPDTDPAFFEHLRALDCSEVTVRALPEGSLAFPGVPLLQVSGPLLVVQLLETPLLCLVSYASLVATNAARLRLIAGPEKRLLEMGLRRAQGPDGGLTASTYSYLGGFDSSSNVLAGQLRGVPVAGTLAHSFVTSFSGSEVPPDPMLAPAAGEGPGVDLAAKAQVWLEQVCAHLGLGVQEPHPGERAAFVAYALAFPRAFQGLLDTYSVWRSGLPNFLAVALALGELGYRAVGVRLDSGDLLQQAQEIRKVFRAAAAQFQVPWLESVLIVVSNNIDEEALARLAQEGSEVNVIGIGTSVVTCPQQPSLGGVYKLVAVGGQPRMKLTEDPEKQTLPGSKAAFRLLGSDGSPLMDMLQLAEEPVPQAGQELRVWPPGAQEPCTVRPAQVEPLLRLCLQQGQLCEPLPSLAESRALAQLSLSRLSPEHRRLRSPAQYQVVLSERLQALVNSLCAGQSP
# notes: human nicotinic acid phosphoribosyltransferase (EC 2.4.2.11); also called human NaPRTase; hNaPRTase
# Target: the molecule itself
# Assay: crystal structure; ligand-free enzyme; sitting drops, 15 mg/mL protein preincubated with 1 mM Acetyl-CoA and 5 mM DTT, 0.1 M Sodium cacodylate pH 6.5, 1.7 M Sodium acetate, 4 °C; P212121, two molecules per asymmetric unit; 2.9 Å
protein,measurement,value
B1,stoichiometry N,2

# Source: article PMC4442680, “Crystal structure of human nicotinic acid phosphoribosyltransferase” (FEBS Open Bio, 2015)
